The values that follow come from patent publication US20230192896A1 (BIOVERATIV THERAPEUTICS, published 2023).

Assay [1] deals with T1, free FIXa (activated Factor IX) (human, UniProt P00740 47-191; P00740 227-461).
T1 construct: BLI antigen bought from Haematologic Technologies (HCIXA-0050); also called factor IXa
The assay can be described thus: BLI; class meaning: paragraph 914.

Assay [2] concerns the target T2, FIXa-SM (FIXa+EGR-CMK) (human, UniProt P00740 47-191; P00740 227-461, EGR-CMK (L-Glu-Gly-Arg chloromethyl ketone) covalently bound to the active site).
T2 construct: BLI antigen bought from Haematologic Technologies (HCIXA-EGR); also called FIXa with substrate mimic
Put plainly: BLI; class meaning: paragraph 914.

B1: BIIB-9-472 (antibody, V domains shown)
VH: EVQLVESGGGLVKPGGSLRLSCAASGFTFSSYSMNWVRQAPGKGLEWVSSISSSSSYIYYADSVKGRFTISRDNAKNSLYLQMNSLRAEDTAVYYCARGGRYSGSWSWNIWGQGTMVTVSS
VL: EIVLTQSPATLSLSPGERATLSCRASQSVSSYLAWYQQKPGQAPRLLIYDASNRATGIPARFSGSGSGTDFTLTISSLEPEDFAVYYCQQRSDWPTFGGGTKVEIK
notes: IgG
B1: the binding result in assay [1] and in assay [2] was “binds” throughout.

B2: BIIB-9-568 (antibody, V domains shown)
VH: QLQLQESGPGLVKPSETLSLTCTVSGGSISSSSYYWGWIRQPPGKGLEWIGSIYYSGSTYYNPSLKSRVTISVDTSKNQFSLKLSSVTAADTAVYYCARDLGYAATYFDLWGRGTLVTVSS
VL: DIQMTQSPSSLSASVGDRVTITCQASQDISNYLNWYQQKPGKAPKLLIYDASNLETGVPSRFSGSGSGTDFTFTISSLQPEDIATYYCQQYDDYLTFGGGTKVEIK
notes: IgG
Take B2: the binding result in assay [1] and in assay [2] was “binds” in each case.

B3: BIIB-9-408 (antibody, V domains shown)
VH: QVQLVQSGAEVKKPGASVKVSCKASGYTFTSYYMHWVRQAPGQGLEWMGIINPSGGSTTYAQKFQGRVTMTRDTSTSTVYMELSSLRSEDTAVYYCARDPGAYDDWSGYDDYGMDVWGQGTTVTVSS
VL: EIVLTQSPATLSLSPGERATLSCRASQSVSSYLAWYQQKPGQAPRLLIYDASNRATGIPARFSGSGSGTDFTLTISSLEPEDFAVYYCQQAFVWPPITFGGGTKVEIK
notes: IgG
Turning to B3, the binding result in assay [1] is listed as “binds”.

B4: BIIB-9-416 (antibody, V domains shown)
VH: QVQLVQSGAEVKKPGASVKVSCKASGYTFTSYYMHWVRQAPGQGLEWMGIINPSGGSTSYAQKFQGRVTMTRDTSTSTVYMELSSLRSEDTAVYYCAREGPMLDYPTYSNWFDPWGQGTLVTVS
VL: EIVMTQSPATLSLSPGERATLSCRASQSVSSYLAWYQQKPGQAPRLLIYDSSNRATGIPARFSGSGSGTDFTLTISSLEPEDFAVYYCQQRVVWPPTFGGGTKVEIK
notes: IgG
B4: in assay [1], the binding result is recorded as “binds”.

B5: BIIB-9-565 (antibody, V domains shown)
VH: QLQLQESGPGLVKPSETLSLTCTVSGGSISSSSYYWGWIRQPPGKGLEWIGSIYYSGSTYYNPSLKSRVTISVDTSKNQFSLKLSSVTAADTAVYYCARAGMYSSYANWFDPWGQGTLVTVSS
VL: EIVLTQSPATLSLSPGERATLSCRASQSVSSYLAWYQQKPGQAPRLLIYDASNRATGIPARFSGSGSGTDFTLTISSLEPEDFAVYYCQQDSNLPFTFGGGTKVEIK
notes: IgG
For the molecule B5, the binding result in assay [2] was “binds”.

B6: BIIB-9-615 (antibody, V domains shown)
VH: QVQLVQSGAEVKKPGASVKVSCKASGYTFTSYYMHWVRQAPGQGLEWMGIINPSGGSTSYAQKFQGRVTMTRDTSTSTVYMELSSLRSEDTAVYYCARDSPSSSSYWSLDLWGRGTLVTVSS
VL: EIVLTQSPATLSLSPGERATLSCRASQSVSSYLAWYQQKPGQAPRLLIYDASNRATGIPARFSGSGSGTDFTLTISSLEPEDFAVYYCQQSCHWPWTFGGGTKVEIK
notes: IgG
With B6, the binding result in assay [1] and in assay [2] was “binds” each time.

B7: BIIB-9-471 (antibody, V domains shown)
VH: QVQLQESGPGLVKPSQTLSLTCTVSGGSISSGGYYWSWIRQHPGKGLEWIGYIYYSGSTYYNPSLKSRVTISVDTSKNQFSLKLSSVTAADTAVYYCARSGVSGSGSDNWFDPWGQGTTVTVSS
VL: EIVLTQSPATLSLSPGERATLSCRASQSVSRYLAWYQQKPGQAPRLLIYDASNRATGIPARFSGSGSGTDFTLTISSLEPEDFAVYYCQQDYNYPFTFGGGTKVEIK
notes: IgG
As to B7, the binding result in assay [1] and in assay [2] was “binds” in each case.

B8: BIIB-9-885 (antibody, V domains shown)
VH: QVQLVQSGAEVKKPGASVKVSCKASGYTFTSYYMHWVRQAPGQGLEWMGIINPSGGSTSYAQKFQGRVTMTRDTSTSTVYMELSSLRSEDTAVYYCAREGPMLDYPTYSNWFDPWGQGTLVTVSS
VL: EIVLTQSPATLSLSPGERATLSCRASQSVSSYLAWYQQKPGQAPRLLIYDASKRATGIPARFSGSGSGTDFTLTISSLEPEDFAVYYCQQRVIWPPTFGGGTKVEIK
notes: IgG
Turning to B8, in assay [1], the binding result is reported as “binds”.

B9: BIIB-9-607 (antibody, V domains shown)
VH: QLQLQESGPGLVKPSETLSLTCTVSGGSISSSSYYWGWIRQPPGKGLEWIGSISYSGSTYYNPSLKSRVTISVDTSKNQFSLKLSSVTAADTAVYYCARDRGYSYEDFDLWGRGTLVTVS
VL: DIQMTQSPSTLSASVGDRVTITCRASQSISSWLAWYQQKPGKAPKLLIYKASSLESGVPSRFSGSGSGTEFTLTISSLQPDDFATYYCQQAGRYPLTFGGGTKVEIK
notes: IgG
As for B9, the binding result in assay [1] and in assay [2] was “binds” throughout.

B10: BIIB-9-446 (antibody, V domains shown)
VH: QVQLVQSGAEVKKPGSSVKVSCKASGGTFSSYAISWVRQAPGQGLEWMGGIIPIFGTASYAQKFQGRVTITADESTSTAYMELSSLRSEDTAVYYCARGLEVGYYGYFDYWGQGTLVTVSS
VL: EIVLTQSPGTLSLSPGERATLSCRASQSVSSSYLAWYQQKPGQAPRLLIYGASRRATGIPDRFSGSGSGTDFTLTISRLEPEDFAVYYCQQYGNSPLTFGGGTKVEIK
notes: IgG
Turning to B10, the binding result in assay [1] and in assay [2] was “binds” each time.

B11: BIIB-9-629 (antibody, V domains shown)
VH: QVQLVQSGAEVKKPGASVKVSCKASGYTFTSYYMHWVRQAPGQGLEWMGVINPSGGSTSYAQKFQGRVTMTRDTSTSTVYMELSSLRSEDTAVYYCARDPSQDYATGTGWFDPWGQGTLVTVSS
VL: DIQLTQSPSSLSASVGDRVTITCQASQDISNYLNWYQQKPGKAPKLLIYDASNLETGVPSRFSGSGSGTDFTFTISSLQPEDIATYYCQQLDSLPPTFGGGTKVEIK
notes: IgG
Regarding B11, in assay [1], the binding result is listed as “binds”.

B12: BIIB-9-1280 (antibody, V domains shown)
VH: QVQLVQSGAEVKKPGASVKVSCKASGYTFTSYYMVWVRQAPGQGLEWMGIINPSGGSTSYAQKFQGRVTMTRDTSTSTVYMELSSLRSEDTAVYYCARGPWYSYYYMDVWGKGTTVTVSS
VL: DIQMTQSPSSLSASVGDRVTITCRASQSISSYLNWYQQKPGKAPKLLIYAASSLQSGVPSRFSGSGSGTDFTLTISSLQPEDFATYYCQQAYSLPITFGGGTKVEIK
notes: IgG
Consider B12, for which the binding result in assay [1] and in assay [2] was “binds” in each case.

B13: BIIB-9-1266 (antibody, V domains shown)
VH: QVQLVQSGAEVKKPGASVKVSCKASGYTFTSYYMHWVRQAPGQGLEWMGIINPSGGSTSYAQKFQGRVTMTRDTSTSTVYMELSSLRSEDTAVYYCARDHGWAIYGMDVWGQGTTVTVSS
VL: EIVMTQSPATLSLSPGERATLSCRASQSVSSYLAWYQQKPGQAPRLLIYDSSNRATGIPARFSGSGSGTDFTLTISSLEPEDFAVYYCQQRLNFPFTFGGGTKVEIK
notes: IgG
Consider B13, for which the binding result in assay [1] and in assay [2] was “binds” in each case.

B14: BIIB-9-439 (antibody, V domains shown)
VH: QVQLVQSGAEVKKPGASVKVSCKASGYTFTSYYMHWVRQAPGQGLEWMGIINPSGGSTTYAQKFQGRVTMTRDTSTSTVYMELSSLRSEDTAVYYCAREATESYYYMDVWGKGTTVTVSS
VL: EIVMTQSPATLSLSPGERATLSCRASQSVSSYLAWYQQKPGQAPRLLIYDSSNRATGIPARFSGSGSGTDFTLTISSLEPEDFAVYYCQQRDNWPFTFGGGTKVEIK
notes: IgG
As for B14, the binding result in assay [1] and in assay [2] was “binds” in each case.

B15: BIIB-9-573 (antibody, V domains shown)
VH: QLQLQESGPGLVKPSETLSLTCTVSGGSISSSSYYWGWIRQPPGKGLEWIGSIYYSGSTYYNPSLKSRVTISVDTSKNQFSLKLSSVTAADTAVYYCARESKTKGYLDLWGRGTLVTVSS
VL: EIVLTQSPGTLSLSPGERATLSCRASQSVSSSFLAWYQQKPGQAPRLLIYGASSRATGIPDRFSGSGSGTDFTLTISRLEPEDFAVYYCQQSHSPPYTFGGGTKVEIK
notes: IgG
Regarding B15, the binding result in assay [2] is reported as “binds”.
